{"source": "paper PMC11437398", "molecular_target": "rabies virus glycoprotein (G) (rabies virus (strain CVS-27)) (UniProt O92284)", "assay": "cryo-electron tomography"}
{"substance": "rabies virus glycoprotein (G) (from UniProt O92284 20-524) (natural protein)", "values": [{"measurement": "stoichiometry N", "value": 3}]}
